Reference: patent publication US20220040297A1 (Chugai, published 2022)

Molecular target: CD3ε homodimer protein (human, UniProt P07766 23-126, limits assumed)
Test: SPR, immobilized CD3ε homodimer;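 further: biacore T200 surface plasmon resonance at 25 °C, antibody variants flowed as analytes over amine-coupled CD3ε homodimer on a CM4 chip, variant binding amount divided by that of GLS3000 antibody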
Experimental: Each one-amino acid altered form constructed, expressed, and purified in the paragraph (6-2) was evaluated using Biacore T200 (GE Healthcare Japan Corp.). An appropriate amount of CD3ε homodimer protein was immobilized onto Sensor chip CM4 (GE Healthcare Japan Corp.) by the amine coupling method. Then, the antibody having an appropriate concentration was injected thereto as an analyte and allowed to interact with the CD3ε homodimer protein on the sensor chip. Then, the sensor chip was regenerated by the injection of 10 mmol/L glycine-HCl (pH 1.5). The assay was conducted at 25° C., and HBS-EP+ (GE Healthcare Japan Corp.) was used as a running buffer. […] Each parameter was calculated using Biacore T200 Evaluation Software (GE Healthcare Japan Corp.).
Specifically, when the amount of the GLS3000-containing antibody bound was defined as X and the amount of the L chain one-amino acid altered form bound was defined as Y, a value of Z (ratio of amounts bound)=Y/X was used.

Sequence of CD3ε homodimer protein (P07766 23-126 limits assumed): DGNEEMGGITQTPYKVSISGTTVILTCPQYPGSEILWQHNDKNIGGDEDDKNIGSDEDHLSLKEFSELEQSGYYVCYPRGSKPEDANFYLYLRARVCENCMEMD

Binder | ratio of amounts bound (vs GLS3000)
GLS3000 V94K (antibody, name in Kabat numbering, V domains shown, one-arm format as m2) VH: QVQLVESGGGVVQPGRSLRLSCAASGFTFSNAWMHWVRQAPGKGLEWVAQIKAKSNNYATYYAESVKGRFTISRDDSKNSLYLQMNSLKTEDTAVYYCRYVHYGAYYGVDAWGQGTTVTVSS VL: DIVMTQSPLSLPVTPGEPASISCRSSQSLVHSNRNTYLHWYQQKPGQAPRLLIYKVSNRFSGVPDRFSGSGSGTDFTLKISRVEAEDVGVYYCGQGTQKPYTFGQGTKLEIK | 0.57
GLS3000 V94M (antibody, name in Kabat numbering, V domains shown, one-arm format as m2) VH: QVQLVESGGGVVQPGRSLRLSCAASGFTFSNAWMHWVRQAPGKGLEWVAQIKAKSNNYATYYAESVKGRFTISRDDSKNSLYLQMNSLKTEDTAVYYCRYVHYGAYYGVDAWGQGTTVTVSS VL: DIVMTQSPLSLPVTPGEPASISCRSSQSLVHSNRNTYLHWYQQKPGQAPRLLIYKVSNRFSGVPDRFSGSGSGTDFTLKISRVEAEDVGVYYCGQGTQMPYTFGQGTKLEIK | 0.44
GLS3000 V94L (antibody, name in Kabat numbering, V domains shown, one-arm format as m2) VH: QVQLVESGGGVVQPGRSLRLSCAASGFTFSNAWMHWVRQAPGKGLEWVAQIKAKSNNYATYYAESVKGRFTISRDDSKNSLYLQMNSLKTEDTAVYYCRYVHYGAYYGVDAWGQGTTVTVSS VL: DIVMTQSPLSLPVTPGEPASISCRSSQSLVHSNRNTYLHWYQQKPGQAPRLLIYKVSNRFSGVPDRFSGSGSGTDFTLKISRVEAEDVGVYYCGQGTQLPYTFGQGTKLEIK | 0.44

More lines, now with the values ahead:

ratio of amounts bound (vs GLS3000) | Binder
0.93 | GLS3000 V94S (antibody, name in Kabat numbering, V domains shown, one-arm format as m2) VH: QVQLVESGGGVVQPGRSLRLSCAASGFTFSNAWMHWVRQAPGKGLEWVAQIKAKSNNYATYYAESVKGRFTISRDDSKNSLYLQMNSLKTEDTAVYYCRYVHYGAYYGVDAWGQGTTVTVSS VL: DIVMTQSPLSLPVTPGEPASISCRSSQSLVHSNRNTYLHWYQQKPGQAPRLLIYKVSNRFSGVPDRFSGSGSGTDFTLKISRVEAEDVGVYYCGQGTQSPYTFGQGTKLEIK
1.05 | GLS3000 V94N (antibody, name in Kabat numbering, V domains shown, one-arm format as m2) VH: QVQLVESGGGVVQPGRSLRLSCAASGFTFSNAWMHWVRQAPGKGLEWVAQIKAKSNNYATYYAESVKGRFTISRDDSKNSLYLQMNSLKTEDTAVYYCRYVHYGAYYGVDAWGQGTTVTVSS VL: DIVMTQSPLSLPVTPGEPASISCRSSQSLVHSNRNTYLHWYQQKPGQAPRLLIYKVSNRFSGVPDRFSGSGSGTDFTLKISRVEAEDVGVYYCGQGTQNPYTFGQGTKLEIK
1.26 | GLS3000 V94P (antibody, name in Kabat numbering, V domains shown, one-arm format as m2) VH: QVQLVESGGGVVQPGRSLRLSCAASGFTFSNAWMHWVRQAPGKGLEWVAQIKAKSNNYATYYAESVKGRFTISRDDSKNSLYLQMNSLKTEDTAVYYCRYVHYGAYYGVDAWGQGTTVTVSS VL: DIVMTQSPLSLPVTPGEPASISCRSSQSLVHSNRNTYLHWYQQKPGQAPRLLIYKVSNRFSGVPDRFSGSGSGTDFTLKISRVEAEDVGVYYCGQGTQPPYTFGQGTKLEIK
0.66 | GLS3000 V94R (antibody, name in Kabat numbering, V domains shown, one-arm format as m2) VH: QVQLVESGGGVVQPGRSLRLSCAASGFTFSNAWMHWVRQAPGKGLEWVAQIKAKSNNYATYYAESVKGRFTISRDDSKNSLYLQMNSLKTEDTAVYYCRYVHYGAYYGVDAWGQGTTVTVSS VL: DIVMTQSPLSLPVTPGEPASISCRSSQSLVHSNRNTYLHWYQQKPGQAPRLLIYKVSNRFSGVPDRFSGSGSGTDFTLKISRVEAEDVGVYYCGQGTQRPYTFGQGTKLEIK
0.76 | GLS3000 V94Q (antibody, name in Kabat numbering, V domains shown, one-arm format as m2) VH: QVQLVESGGGVVQPGRSLRLSCAASGFTFSNAWMHWVRQAPGKGLEWVAQIKAKSNNYATYYAESVKGRFTISRDDSKNSLYLQMNSLKTEDTAVYYCRYVHYGAYYGVDAWGQGTTVTVSS VL: DIVMTQSPLSLPVTPGEPASISCRSSQSLVHSNRNTYLHWYQQKPGQAPRLLIYKVSNRFSGVPDRFSGSGSGTDFTLKISRVEAEDVGVYYCGQGTQQPYTFGQGTKLEIK
